Source: patent US20110091994A1, “Methods for Screening Compounds for Treating and/or Preventing an Hepatitis C Virus Infection” (priority 2008, published 2011)
Where two headings read alike, the source gives them in different places.

B1: FRS3 (protein, UniProt O43559 2-492, looked up)
Fibroblast growth factor …: GSCCSCLNRDSVPDNHPTKFKVTNVDDEGVELGSGVMELTQSELVLHLHRREAVRWPYLCLRRYGYDSNLFSFESGRRCQTGQGIFAFKCSRAEEIFNLLQDLMQCNSINVMEEPVIITRNSHPAELDLPRAPQPPNALGYTVSSFSNGCPGEGPRFSAPRRLSTSSLRHPSLGEESTHALIAPDEQSHTYVNTPASEDDHRRGRHCLQPLPEGQAPFLPQARGPDQRDPQVFLQPGQVKFVLGPTPARRHMVKCQGLCPSLHDPPHHNNNNEAPSECPAQPKCTYENVTGGLWRGAGWRLSPEEPGWNGLAHRRAALLHYENLPPLPPVWESQAQQLGGEAGDDGDSRDGLTPSSNGFPDGEEDETPLQKPTSTRAAIRSHGSFPVPLTRRRGSPRVFNFDFRRPGPEPPRQLNYIQVELKGWGGDRPKGPQNPSSPQAPMPTTHPARSSDSYAVIDLKKTVAMSNLQRALPRDDGTARKTRHNSTDLPL
B2: EIF4ENIF1 (protein, UniProt Q9NRA8 1-985, looked up)
Eukaryotic translation …: MDRRSMGETESGDAFLDLKKPPASKCPHRYTKEELLDIKELPHSKQRPSCLSEKYDSDGVWDPEKWHASLYPASGRSSPVESLKKELDTDRPSLVRRIVDPRERVKEDDLDVVLSPQRRSFGGGCHVTAAVSSRRSGSPLEKDSDGLRLLGGRRIGSGRIISARTFEKDHRLSDKDLRDLRDRDRERDFKDKRFRREFGDSKRVFGERRRNDSYTEEEPEWFSAGPTSQSETIELTGFDDKILEEDHKGRKRTRRRTASVKEGIVECNGGVAEEDEVEVILAQEPAADQEVPRDAVLPEQSPGDFDFNEFFNLDKVPCLASMIEDVLGEGSVSASRFSRWFSNPSRSGSRSSSLGSTPHEELERLAGLEQAILSPGQNSGNYFAPIPLEDHAENKVDILEMLQKAKVDLKPLLSSLSANKEKLKESSHSGVVLSVEEVEAGLKGLKVDQQVKNSTPFMAEHLEETLSAVTNNRQLKKDGDMTAFNKLVSTMKASGTLPSQPKVSRNLESHLMSPAEIPGQPVPKNILQELLGQPVQRPASSNLLSGLMGSLEPTTSLLGQRAPSPPLSQVFQTRAASADYLRPRIPSPIGFTPGPQQLLGDPFQGMRKPMSPITAQMSQLELQQAALEGLALPHDLAVQAANFYQPGFGKPQVDRTRDGFRNRQQRVTKSPAPVHRGNSSSPAPAASITSMLSPSFTPTSVIRKMYESKEKSKEEPASGKAALGDSKEDTQKASEENLLSSSSVPSADRDSSPTTNSKLSALQRSSCSTPLSQANRYTKEQDYRPKATGRKTPTLASPVPTTPFLRPVHQVPLVPHVPMVRPAHQLHPGLVQRMLAQGVHPQHLPSLLQTGVLPPGMDLSHLQGISGPILGQPFYPLPAASHPLLNPRPGTPLHLAMVQQQLQRSVLHPPGSGSHAAAVSVQTTPQNVPSRSGLPHMHSQLEHRPSQRSSSPVGLAKWFGSDVLQQPLPSMPAKVISVDELEYRQ
B3: RAI14 (protein, UniProt Q9P0K7 1-980, looked up)
Ankycorbin: MKSLKAKFRKSDTNEWNKNDDRLLQAVENGDAEKVASLLGKKGASATKHDSEGKTAFHLAAAKGHVECLRVMITHGVDVTAQDTTGHSALHLAAKNSHHECIRKLLQSKCPAESVDSSGKTALHYAAAQGCLQAVQILCEHKSPINLKDLDGNIPLLLAVQNGHSEICHFLLDHGADVNSRNKSGRTALMLACEIGSSNAVEALIKKGADLNLVDSLGYNALHYSKLSENAGIQSLLLSKISQDADLKTPTKPKQHDQVSKISSERSGTPKKRKAPPPPISPTQLSDVSSPRSITSTPLSGKESVFFAEPPFKAEISSIRENKDRLSDSTTGADSLLDISSEADQQDLLSLLQAKVASLTLHNKELQDKLQAKSPKEAEADLSFDSYHSTQTDLGPSLGKPGETSPPDSKSSPSVLIHSLGKSTTDNDVRIQQLQEILQDLQKRLESSEAERKQLQVELQSRRAELVCLNNTEISENSSDLSQKLKETQSKYEEAMKEVLSVQKQMKLGLVSPESMDNYSHFHELRVTEEEINVLKQDLQNALEESERNKEKVRELEEKLVEREKGTVIKPPVEEYEEMKSSYCSVIENMNKEKAFLFEKYQEAQEEIMKLKDTLKSQMTQEASDEAEDMKEAMNRMIDELNKQVSELSQLYKEAQAELEDYRKRKSLEDVTAEYIHKAEHEKLMQLTNVSRAKAEDALSEMKSQYSKVLNELTQLKQLVDAQKENSVSITEHLQVITTLRTAAKEMEEKISNLKEHLASKEVEVAKLEKQLLEEKAAMTDAMVPRSSYEKLQSSLESEVSVLASKLKESVKEKEKVHSEVVQIRSEVSQVKREKENIQTLLKSKEQEVNELLQKFQQAQEELAEMKRYAESSSKLEEDKDKKINEMSKEVTKLKEALNSLSQLSYSTSSSKRQSQQLEALQQQVKQLQNQLAECKKQHQEVISVYRMHLLYAVQGQMDEDVQKVLKQILTMCKNQSQKK
B4: TXNDC11 (protein, UniProt Q6PKC3 1-985, looked up)
Thioredoxin domain-containing …: MSECGGRGGGSSSSEDAEDEGGGGGGPAGSDCLSSSPTLATASSAGRLRRGLRGAFLMARQRPELLCGAVALGCALLLALKFTCSRAKDVIIPAKPPVSFFSLRSPVLDLFQGQLDYAEYVRRDSEVVLLFFYAPWCGQSIAARAEIEQAASRLSDQVLFVAINCWWNQGKCRKQKHFFYFPVIYLYHRSFGPIEYKGPMSAVYIEKFVRRVMKPLLYIPSQSELLDFLSNYEPGVLGYFEFSGSPQPPGYLTFFTSALHSLKKALESTSSPRALVSFTGEWHLETKIYVLDYLGTVRFGVITNKHLAKLVSLVHSGSVYLHRHFNTSLVFPREVLNYTAENICKWALENQETLFRWLRPHGGKSLLLNNELKKGPALFLFIPFNPLAESHPLIDEITEVALEYNNCHGDQVVERLLQHLRRVDAPVLESLALEVPAQLPDPPTITASPCCNTVVLPQWHSFSRTHNVCELCVNQTSGGMKPSSVSVPQCSFFEMAAALDSFYLKEQTFYHVASDSIECSNFLTSYSPFSYYTACCRTISRGVSGFIDSEQGVFEAPTVAFSSLEKKCEVDAPSSVPHIEENRYLFPEVDMTSTNFTGLSCRTNKTLNIYLLDSNLFWLYAERLGAPSSTQVKEFAAIVDVKEESHYILDPKQALMKLTLESFIQNFSVLYSPLKRHLIGSGSAQFPSQHLITEVTTDTFWEVVLQKQDVLLLYYAPWCGFCPSLNHIFIQLARNLPMDTFTVARIDVSQNDLPWEFMVDRLPTVLFFPCNRKDLSVKYPEDVPITLPNLLRFILHHSDPASSPQNVANSPTKECLQSEAVLQRGHISHLEREIQKLRAEISSLQRAQVQVESQLSSARRDEHRLRQQQRALEEQHSLLHAHSEQLQALYEQKTRELQELARKLQELADASENLLTENTWLKILVATMERKLEGRDGAESLAAQREVHPKQPEPSATPQLPGSSPPPANVSATLVSERNKENRTD

Assays:
[1] = target: T1, HCV ORFs (Gal4-DB fusions) (Hepatitis C virus genotype 1b, UniProt Q9WMX2); type: binding, HCV genotype 1b, isolate con1; conditions: human protein as prey
T1 construct: expressed in transfected cells; host or cells: Saccharomyces cerevisiae MAV203 (IMAP1) / AH109 (IMAP2)

[2] = test system: HCV ORFs (Gal4-DB fusions); type: binding, HCV genotype 1b, isolate con1; conditions: human protein listed by gene symbol; the value names the HCV protein it interacts with
[3] = target: T2, GST-tagged viral proteins (Hepatitis C virus genotype 1b, UniProt Q9WMX2); experiment: Validation by co-affinity purification (CoAP); type: binding, HCV genotype 1b, isolate con1; set-up: key: +: IMAP validation; −: not validated; NA: non assayable due to default of protein expression or to cellular protein directly interacting with GST
T2 construct: expressed in transfected cells; host or cells: HEK-293T
Outline: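 HEK-293T cells were co-transfected with N-terminal GST-tagged HCV bait and 3xFLAG-tagged human prey ORFs, with GST alone as control. Two days later, lysates (0.5% NP-40, pH 8.0) were pulled down on glutathione beads. Preys were detected by anti-FLAG immunoblot after SDS-PAGE.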

HCV proteins = target: T3, HCV proteins (Hepatitis C virus genotype 1b, UniProt Q9WMX2); experiment: Validation by Y2H pairwise matrices; type: binding; conditions: validation of interaction with HCV protein NS3;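 also: yeast two-hybrid pairwise tests of interactions first found in Y2H screens of HCV bait proteins against human cDNA libraries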
T3 construct: expressed in transfected cells

[4] = validation of interaction with HCV protein NS3
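For IMAP Y2H IMAP1 (number of IST) in this document: yeast two-hybrid screens using HCV genotype 1b proteins fused to Gal4-DB as baits against prey cDNA libraries from human spleen and foetal brain, IMAP1 via transformation and IMAP2 via mating.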
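For IMAP Y2H IMAP2 (number of IST) in this document: yeast two-hybrid screens using HCV genotype 1b proteins fused to Gal4-DB as baits against prey cDNA libraries from human spleen and foetal brain, IMAP1 via transformation and IMAP2 via mating.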
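For Interaction with viral protein in this document: yeast two-hybrid screens using HCV genotype 1b proteins fused to Gal4-DB as baits against prey cDNA libraries from human spleen and foetal brain, IMAP1 via transformation and IMAP2 via mating.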

T3 sequence (Q9WMX2 1027-1657): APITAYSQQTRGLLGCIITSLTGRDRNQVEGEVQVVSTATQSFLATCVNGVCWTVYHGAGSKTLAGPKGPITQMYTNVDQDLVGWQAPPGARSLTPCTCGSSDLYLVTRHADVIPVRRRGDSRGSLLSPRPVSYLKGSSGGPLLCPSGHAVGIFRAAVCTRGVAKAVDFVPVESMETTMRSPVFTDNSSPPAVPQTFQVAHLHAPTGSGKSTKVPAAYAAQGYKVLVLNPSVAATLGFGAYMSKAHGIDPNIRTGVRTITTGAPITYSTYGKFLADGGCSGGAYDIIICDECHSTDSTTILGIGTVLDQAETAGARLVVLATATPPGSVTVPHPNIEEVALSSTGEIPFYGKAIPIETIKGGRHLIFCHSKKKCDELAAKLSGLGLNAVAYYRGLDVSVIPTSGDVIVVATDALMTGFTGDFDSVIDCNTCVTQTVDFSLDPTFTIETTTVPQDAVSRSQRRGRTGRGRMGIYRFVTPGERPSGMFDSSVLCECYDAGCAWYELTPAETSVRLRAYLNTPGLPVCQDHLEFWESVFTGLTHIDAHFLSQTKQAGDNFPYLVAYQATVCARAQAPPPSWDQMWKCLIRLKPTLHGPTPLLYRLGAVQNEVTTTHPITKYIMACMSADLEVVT

Molecule	IMAP Y2H IMAP1 (number of IST) ([1]; HCV protein NS3 as bait)	IMAP Y2H IMAP2 (number of IST) ([1]; HCV protein NS3 as bait)	Interaction with viral protein [2]	CoAP [3, 4]	Y2H matrices (HCV proteins)	IMAP Y2H IMAP2 (number of IST) ([1]; HCV protein NS5A as bait)	CoAP ([3]; interaction with HCV protein NS5A)
B1	2	1	NS3	+	+		
B2	2	3	NS3	+	+		
B3	1	2	NS3	−	+		
B4	2		NS3		+	1	+
